Results as given in US20240424115A1, “LONG-ACTING INTERLEUKIN-15 RECEPTOR AGONISTS AND RELATED IMMUNOTHERAPEUTIC COMPOSITIONS AND METHODS” (Nektar Therapeutics, priority 2017, published 2024).
“And” between values parts separate entries of the source, which are not always exact repeats. Equal entries are not always repeated. Where two headings read alike, the source gives them in different places.

Assays:
IL-15Rα = IL-15Rα (Homo sapiens, UniProt Q13261); assay: Receptor affinity for IL-15Rα by surface plasmon resonance (BIAcore); type: binding; settings: for ka: IL-15Rα:Fc captured by anti-Fc
Chain of IL-15Rα (Q13261 31-205 limits assumed): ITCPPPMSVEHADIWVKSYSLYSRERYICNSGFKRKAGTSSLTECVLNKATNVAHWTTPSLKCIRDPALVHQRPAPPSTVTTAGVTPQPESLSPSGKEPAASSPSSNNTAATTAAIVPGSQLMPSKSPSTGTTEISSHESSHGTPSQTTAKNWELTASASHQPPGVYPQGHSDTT
Experimental: The affinities of IL-15 and exemplary long acting rIL-15 receptor agonists were measured using Surface Plasmon Resonance (“SPR”) using a BIAcore™ SPR system. Briefly, the surface of a Biacore CM5 sensor chip was activated using a 1:1 mixture of NHS: EDC to generate active NHS esters. Goat anti-human Fc antibody was covalently attached to the surface by injecting it for five minutes in 10 mM sodium acetate (pH 4). There were approximately 8000 RU of antibodies bound to the surface. Any remaining NHS ester was then quenched with ethanolamine.
At the initiation of each injection cycle, IL-15-Rα-Fc was captured on a sensor chip channel by a five-minute injection step in PBSP. Typically, 150-200 RU of receptors were bound on the surface.
Long acting rIL-15 receptor agonist test articles were diluted to 10 µM in PBS (containing 0.05% Tween 20 and 0.1 mg/ml BSA). A series of 3-fold dilutions were made and injected onto a sensor chip which was coated with IL-15Rα. The affinities were measured by determining the ka and kd rates separately, and the ratio between kd and ka was used to calculate the Kd values.
The affinities of exemplary long-acting IL-15 receptor agonists (test articles) for the IL-15 α receptor were measured and compared to IL-15. Affinity was measured by BIAcore using IL-15Rα:Fc captured by immobilized anti-Fc.
The test articles were diluted to 10 μM in PBS (containing 0.05% Tween 20 and 0.1 mg/ml BSA). A series of 3-fold dilutions were made and injected onto a sensor chip which was coated with IL-15Rα. The affinities were measured by determining the ka and kd rates separately, and the ratio between ka and kd was used to calculate the […] values.

CTLL-2 cells = assay: Potency assay based on STAT5 phosphorylation in CTLL-2 cells; type: cell-based, murine; settings: for EC50 (ng/mL) CTLL-2 pSTAT5: Table 2B
Experimental: In the phospho-STAT5 assay following receptor binding, downstream cell signaling can then activate Signal Transducer and Activator of Transcription 5 (STAT5) through phosphorylation to promote gene expression to induce cell proliferation. The activation of phosho-STAT5 is measured in CTLL-2 cells, a murine T lymphocyte cell line, using the phospho-STAT5/total STAT5 multiplexed assay (Meso Scale Discovery, MD) in response to sample and reference treatment for ˜10 minutes.
One day prior to the assay, CTLL-2 cells were split into fresh growth medium [RPMI 1640 supplemented with 10% FBS, 10% T-cell culture supplement (catalog #354115, Corning, Inc., Tewksbury, MA), 2 mM L-glutamate, and 1 mM sodium pyruvate]. On the day of assay, cells were pre-incubated in assay medium (RPMI 1640 supplemented with 1% FBS, 2 mM L-glutamate, and 1 mM sodium pyruvate) for at least four hours, and then plated in assay medium in a 96-well plate at 50,000 cells/well. Dilutions of the test article were prepared in an appropriate buffer immediately prior to assay. Stimulation of CTLL-2 cells was initiated by the transfer of 25X test article solutions to triplicate wells containing CTLL-2 cells. Plates were incubated at 37° C., 5% CO2 for 10 minutes, and the reaction was stopped by cell lysis. Detection of phospho-STAT5 and total STAT5 protein levels in cell lysates was performed using the MSD Phospho (Tyr694)/Total STATa,b Whole Cell Lysate Kit (Meso Scale Discovery, MD).

CD4, CD8, and NK cells = assay: In vivo IL-15 signaling (STAT5 phosphorylation in lymphocytes) in mice
Description: Conventional approaches, such as those involving radiolabeling a compound, administering the compound in vivo, and determining its clearance, can be used to assess whether a compound proposed to be a long-acting, IL-15 R agonist is “long-acting” (i.e., has a clearance that is longer than that of IL-15 administered in the same in vivo system). For the purposes herein, the long acting nature of a long-acting IL-15 R agonist may be, and is typically determined using flow cytometry to measure STAT5 phosphorylation in lymphocytes at various time points after administration of the agonist to be evaluated in mice. As a reference, the signal is lost by around 24 hours with IL-15, but is sustained for a period greater than that for a long-acting IL-15 agonist.
Mice were dosed as described in Example 6 above to assess in-vivo signaling as assessed by degree of STAT5 phosphorylation. Degree of STAT5 phosphorylation in various lymphocytes (CD4, CD8, and NK cells) was assessed by staining whole blood for leukocyte surface markers and pSTAT5, followed by measurement by flow cytometry. Results are shown in FIGS. 8A and 8 B for IL-15 and for Conjugate 2, respectively.
[PK methods previously described herein].
STAT5 phosphorylation in CD4 T cells was determined by using a CD3+CD4+CD8-pSTAT5+ marker combination. FIG. 43 is a plot of pSTAT5 phosphorylation percent positivity within CD4 T cells over time (at 0.25, 1, 6, 24, 48, 72, 96 and 120 hours post administration) at a dose of 0.03 mg/kg (blue, solid squares) or 0.3 mg/kg (orange, solid circles). The vehicle over time (black) and pre-dose (open circles) levels are also shown.

## IL-15: recombinant human IL-15 from E. coli, SEQ ID NO: 1, non-glycosylated, 12.9 kDa; unconjugated comparator
IL-15Rα; Table 2A
  ka: 578000 M⁻¹ s⁻¹
  dissociation rate constant (kd): 0.000149 s⁻¹
IL-15Rα; Table 2A, read-out: KD
  Kd: 0.258 nM
IL-15Rα; Table 2B, read-out: IL-15Rα KD
  Kd: 0.258 nM
CTLL-2 cells
  EC50 (ng/mL) CTLL-2 pSTAT5: 0.27 ng/mL
CD4, CD8, and NK cells; C57BL/6 mice, single i.v. 0.3 mg/kg
  duration of in-vivo STAT5 phosphorylation activity in NK and CD8 cells: extremely short-lived
CD4, CD8, and NK cells; mice, reference
  time by which the STAT5 phosphorylation signal in lymphocytes is lost: around 24 hours

## mono-mPEG-SBA40K-IL-15 [Conjugate 1]
IL-15Rα; Table 2A
  ka: 492000 M⁻¹ s⁻¹
  dissociation rate constant (kd): 0.000103 s⁻¹
IL-15Rα; Table 2A, read-out: KD
  Kd: 0.209 nM
IL-15Rα; Table 2B, read-out: IL-15Rα KD
  Kd: 0.201 nM and 0.209 nM
IL-15Rα; compared to IL-15
  alpha receptor affinity of IL-15 retained: about 80%
CTLL-2 cells; EC50 CTLL-2 pSTAT5
  reduction in potency when compared to IL-15: two-fold
CTLL-2 cells
  EC50 (ng/mL) CTLL-2 pSTAT5: 0.62 ng/mL
CD4, CD8, and NK cells; Balb/c mice, single i.v. 0.03 or 0.3 mg/kg, compared to CD8 and NK cells
  pSTAT5 expression in CD4 T cells: relatively less increase in pSTAT5 expression
CD4, CD8, and NK cells; balb/c mice, single injection 0.03 and 0.3 mg/kg
  pSTAT5 percent positivity within NK cells: induces robust and sustained pSTAT5 signaling in NK cells
CD4, CD8, and NK cells; balb/c mice, single injection 0.03 and 0.3 mg/kg, 120 h
  pSTAT5 percent positivity within CD8 T cells: induces sustained pSTAT5signaling in CD8 T cells
